Experimental data from patent publication US20190248900A1 (Y BIOLOGICS, published 2019).

Columns and labels:
Experiment in all cases: ELISA
PLXDC1 = biological target: T1, PLXDC1 (Homo sapiens (Human), UniProt Q8IUK5 19-426)
T1 sequence: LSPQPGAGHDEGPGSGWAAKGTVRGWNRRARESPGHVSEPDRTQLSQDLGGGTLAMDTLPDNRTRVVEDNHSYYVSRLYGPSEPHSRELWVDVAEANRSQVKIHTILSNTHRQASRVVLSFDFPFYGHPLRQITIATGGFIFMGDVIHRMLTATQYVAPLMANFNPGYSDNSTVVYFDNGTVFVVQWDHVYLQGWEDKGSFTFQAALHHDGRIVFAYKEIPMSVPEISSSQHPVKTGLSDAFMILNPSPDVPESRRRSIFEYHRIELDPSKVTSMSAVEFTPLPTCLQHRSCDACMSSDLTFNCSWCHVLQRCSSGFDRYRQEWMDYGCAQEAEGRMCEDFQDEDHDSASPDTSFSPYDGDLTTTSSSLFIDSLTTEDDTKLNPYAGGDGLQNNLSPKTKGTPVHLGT

WFDC2 = biological target: T2, WFDC2 (Homo sapiens (Human), UniProt Q14508 31-124)
T2 sequence: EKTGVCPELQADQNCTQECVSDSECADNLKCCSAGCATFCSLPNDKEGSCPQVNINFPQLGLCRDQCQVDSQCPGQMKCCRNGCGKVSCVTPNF

AGR3 = biological target: T3, AGR3 (Homo sapiens (Human), UniProt Q8TD06 22-166)
T3 sequence: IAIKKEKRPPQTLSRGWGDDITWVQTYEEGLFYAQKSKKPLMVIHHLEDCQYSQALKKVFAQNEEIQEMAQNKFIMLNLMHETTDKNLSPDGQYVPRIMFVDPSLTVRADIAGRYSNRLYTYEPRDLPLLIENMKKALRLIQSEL

CREG1 = biological target: T4, CREG1 (Homo sapiens (Human), UniProt O75629 32-220)
T4 sequence: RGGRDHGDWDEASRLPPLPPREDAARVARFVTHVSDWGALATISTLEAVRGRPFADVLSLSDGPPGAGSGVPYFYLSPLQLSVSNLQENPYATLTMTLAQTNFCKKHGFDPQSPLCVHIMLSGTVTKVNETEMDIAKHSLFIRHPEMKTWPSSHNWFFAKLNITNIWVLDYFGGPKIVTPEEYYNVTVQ

CD86 = biological target: T5, CD86 (Homo sapiens (Human), UniProt P42081 24-247)
T5 sequence: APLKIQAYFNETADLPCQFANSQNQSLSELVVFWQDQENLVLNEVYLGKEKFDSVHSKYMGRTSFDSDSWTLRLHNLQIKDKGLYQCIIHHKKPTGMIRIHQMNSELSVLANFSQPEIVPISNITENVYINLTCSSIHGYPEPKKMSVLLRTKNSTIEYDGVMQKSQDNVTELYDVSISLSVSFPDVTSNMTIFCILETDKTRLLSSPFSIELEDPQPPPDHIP

EPYC = biological target: T6, EPYC (Homo sapiens (Human), UniProt Q99645 20-322)
T6 sequence: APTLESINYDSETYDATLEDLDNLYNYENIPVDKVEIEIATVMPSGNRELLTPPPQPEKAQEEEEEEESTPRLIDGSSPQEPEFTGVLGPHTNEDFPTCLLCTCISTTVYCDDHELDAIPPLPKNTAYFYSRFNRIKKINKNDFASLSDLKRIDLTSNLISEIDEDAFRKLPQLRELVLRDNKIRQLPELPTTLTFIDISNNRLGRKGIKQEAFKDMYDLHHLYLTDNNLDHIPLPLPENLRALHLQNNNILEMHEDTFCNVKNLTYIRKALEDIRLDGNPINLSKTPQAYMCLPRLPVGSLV

RTN4RL1 = biological target: T7, RTN4RL1 (Homo sapiens (Human), UniProt Q86UN2 25-420)
T7 sequence: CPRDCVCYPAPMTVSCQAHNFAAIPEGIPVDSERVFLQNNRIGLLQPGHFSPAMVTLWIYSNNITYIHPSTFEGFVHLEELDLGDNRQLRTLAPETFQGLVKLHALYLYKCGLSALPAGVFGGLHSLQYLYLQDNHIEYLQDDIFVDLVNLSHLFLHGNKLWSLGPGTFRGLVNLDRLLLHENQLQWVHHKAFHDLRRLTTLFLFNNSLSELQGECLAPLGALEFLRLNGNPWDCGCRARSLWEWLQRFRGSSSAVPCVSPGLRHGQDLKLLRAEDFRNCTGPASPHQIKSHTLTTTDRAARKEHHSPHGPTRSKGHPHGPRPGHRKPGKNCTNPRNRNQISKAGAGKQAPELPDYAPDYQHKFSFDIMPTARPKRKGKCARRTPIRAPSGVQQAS

FSTL1 = biological target: T8, FSTL1 (Homo sapiens (Human), UniProt Q12841 21-308)
T8 sequence: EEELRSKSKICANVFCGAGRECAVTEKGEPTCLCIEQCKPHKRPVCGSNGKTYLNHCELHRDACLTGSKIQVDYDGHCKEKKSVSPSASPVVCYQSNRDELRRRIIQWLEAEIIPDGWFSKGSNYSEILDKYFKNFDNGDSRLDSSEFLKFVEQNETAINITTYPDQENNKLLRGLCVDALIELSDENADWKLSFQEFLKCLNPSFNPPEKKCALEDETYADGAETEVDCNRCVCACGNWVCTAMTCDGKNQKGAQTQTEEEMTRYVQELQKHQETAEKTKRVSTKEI

NRG4 = biological target: T9, NRG4 (Homo sapiens (Human), UniProt Q8WWG1 1-62)
T9 sequence: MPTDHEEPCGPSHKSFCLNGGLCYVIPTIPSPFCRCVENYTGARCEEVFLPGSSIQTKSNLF

SPOCK2 = biological target: T10, SPOCK2 (Homo sapiens (Human), UniProt Q92563 23-424)
T10 sequence: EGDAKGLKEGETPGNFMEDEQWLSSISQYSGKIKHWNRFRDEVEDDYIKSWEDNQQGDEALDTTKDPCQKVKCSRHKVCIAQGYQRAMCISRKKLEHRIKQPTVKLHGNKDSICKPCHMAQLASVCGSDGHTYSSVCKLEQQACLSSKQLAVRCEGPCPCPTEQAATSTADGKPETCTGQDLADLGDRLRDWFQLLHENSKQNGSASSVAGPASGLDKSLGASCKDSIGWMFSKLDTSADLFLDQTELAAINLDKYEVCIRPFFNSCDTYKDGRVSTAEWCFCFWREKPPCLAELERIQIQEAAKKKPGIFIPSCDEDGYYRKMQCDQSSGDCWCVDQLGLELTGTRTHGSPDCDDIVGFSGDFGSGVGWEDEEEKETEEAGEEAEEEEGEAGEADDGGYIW

Measured: binding result

B1: PD1-45D6 (antibody, V domains shown)
VH: QVQLVESGGGVVQPGRSLRLSCAASGFTFSSYAMHWVRQVPGKGLEWVAVISYDGNDKYYADSVKGRFTISRDNSKNTLYLQMNSLRAEDTAVYYCVPTTFEYWGQGSQVTVSS
VL: DIVMTQTPLSLPVTPGEAASISCRSSQSLLDSDDGKTYLDWYLQKPGQSPQLLIYTLSYRASGVPDRFSGSGSGTEFNLRISRVEAEDVGIYYCMQRVEFPFTFGQGTKLDIK
notes: scFv-phage in the screening ELISA; whole IgG in the other assays
no binding (tested: 1 ug/ml): all assays above

B2: PD1-41C9 (antibody, V domains shown)
VH: QMQLVESGGGVVQPGRSLRLSCAASGFTFSSYAMHWVRQAPGKGLEWVAVISYDGSNKYYADSVKGRFTISRDNSKNTLYLQMNRLRSEDTAVYYCTTTTFDSWGQGTLITVSS
VL: DIVMTQTPLSLPVTPGEAASISCRSSQSLLDSEDGNTYLDWYLQKPGQSPQLLIYTLSHRASGVPDRFSGSGSGTDFTLKISRVAAEDVGLYYCLQRMGFPYTFGQGTKLDIK
notes: as for B1
no binding (tested: 1 ug/ml): all assays above

B3: PD1-49A2 (antibody, V domains shown)
VH: QVQLVESGGGVVQPGRSLRLSCAASGFTFSSYAMHWVRQAPGKGLEWVAVISYDGSNKYYADSVKGRFTISRDNPKNTLYLQMNSLRAEDTAVYYCTTTTFDSWGRGTLVTVSS
VL: DIVMTQSPLSLPVTPGEPASISCRSSQSLFDSDDGNTYLDWYLQKPGQSPQLLIYTLSHRASGVPDRFSGSGSGTDFTLKISRVEAEDVGIYYCLQRMGFPYTFGQGTKVEIK
notes: scFv-phage in the screening ELISA; whole IgG in the other assays; also called Parent 49A2
no binding (tested: 1 ug/ml): all assays above
